Molecular target: Creatine kinase brain type (CKB) (UniProt P12277 1-381)
Assay: SEC-MALS

Sequence of Creatine kinase brain type (CKB) (P12277 whole entry): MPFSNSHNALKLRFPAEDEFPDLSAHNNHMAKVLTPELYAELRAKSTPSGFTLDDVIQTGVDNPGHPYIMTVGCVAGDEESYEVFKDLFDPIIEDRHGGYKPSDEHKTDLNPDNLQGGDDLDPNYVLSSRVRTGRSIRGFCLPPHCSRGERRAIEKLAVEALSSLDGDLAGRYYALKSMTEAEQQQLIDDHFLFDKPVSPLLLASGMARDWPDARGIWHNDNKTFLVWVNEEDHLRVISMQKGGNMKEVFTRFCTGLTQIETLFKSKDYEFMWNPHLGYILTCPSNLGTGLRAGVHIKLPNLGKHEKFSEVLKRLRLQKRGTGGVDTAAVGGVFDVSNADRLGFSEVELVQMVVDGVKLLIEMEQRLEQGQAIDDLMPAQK

stoichiometry N: 1 ASB9 per CK dimer
B1: ASB9(1-252) (domain or fragment, UniProt Q96DX5 1-252, looked up)
chain: MDGKQGGMDGSKPAGPRDFPGIRLLSNPLMGDAVSDWSPMHEAAIHGHQLSLRNLISQGWAVNIITADHVSPLHEACLGGHLSCVKILLKHGAQVNGVTADWHTPLFNACVSGSWDCVNLLLQHGASVQPESDLASPIHEAARRGHVECVNSLIAYGGNIDHKISHLGTPLYLACENQQRACVKKLLESGADVNQGKGQDSPLHAVARTASEELACLLMDFGADTQAKNAEGKRPVELVPPESPLAQLFLER
